Test results from patent US20120316071A1 (published 2012).
Positions count from the first letter of the chain named. Names may count otherwise. Values belong to the binder of their own block, whether it stands above or below them.

Tests used:
[1] = biological target: T1, Recombinant Human DLL4 (R&D Systems Cat#1506-D4/CF) (human, UniProt Q9NR61 27-524); assay: ELISA titration, 2-fold dilutions from 20 nM Fab
T1 construct: bought recombinant protein; also called rHuman DLL4; delta-like protein 4

[2] = biological target: T2, Recombinant Human DLL4 (delta-like protein 4) (human, UniProt Q9NR61 27-524); assay: ELISA, DLL4 coated on plate, Fab at 20 nM, absorbance at 450 nm
T2 construct: Bought recombinant protein (R&D Systems Cat#1506-D4/CF) coated on the ELISA plate; also called rHuman DLL4; Delta-like 4

[3] = biological target: T2, Recombinant Human DLL4 (delta-like …); assay: ELISA, DLL4 coated on plate, Fab at 1.3 nM, absorbance at 450 nm
[4] = biological target: T2, Recombinant Human DLL4 (delta-like …); assay: ELISA, DLL4 coated on plate, Fab at 0.31 nM, absorbance at 450 nm
[5] = biological target: T2, Recombinant Human DLL4 (delta-like …); assay: ELISA, DLL4 coated on plate, Fab at 10 nM, absorbance at 450 nm
[6] = biological target: T2, Recombinant Human DLL4 (delta-like …); assay: ELISA, DLL4 coated on plate, Fab at 2.5 nM, absorbance at 450 nm
[7] = biological target: T2, Recombinant Human DLL4 (delta-like …); assay: ELISA, DLL4 coated on plate, Fab at 5 nM, absorbance at 450 nm
[8] = biological target: T2, Recombinant Human DLL4 (delta-like …); assay: ELISA, DLL4 coated on plate, Fab at 0.63 nM, absorbance at 450 nm
[9] = biological target: T2, Recombinant Human DLL4 (delta-like …); assay: ELISA, DLL4 coated on plate, Fab at 0.16 nM, absorbance at 450 nm
Recombinant Human DLL4 = biological target: T3, Recombinant Human DLL4 (human, UniProt Q9NR61 27-524); assay: ECL (MSD) multispot binding assay, DLL4 spotted on plate, Fab in solution
T3 construct: also called delta-like protein 4; rHuman DLL4

[10] = biological target: T4, Recombinant Human DLL4 (delta-like protein 4) (human, UniProt Q9NR61 27-524); assay: ELISA, DLL4 coated plate, Fab in solution; average signal minus noise
T4 construct: Bought recombinant human DLL4 (R&D Systems Cat#1506-D4/CF), coated on the plate; also called rHuman DLL4; Delta-like 4

[11] = biological target: T4, Recombinant Human DLL4 (delta-like …); assay: ECL (MSD) 96-well plate assay, recombinant human DLL4 coated, Fab in solution
[12] = biological target: T5, Recombinant Human DLL4 (delta-like protein 4) (human, UniProt Q9NR61 27-524); assay: ELISA, plate-coated DLL4, Fab 25 nM
T5 construct: also called rHuman DLL4

[13] = biological target: T5, Recombinant Human DLL4 (delta-like …); assay: ELISA, plate-coated DLL4, Fab 3.125 nM
[14] = biological target: T5, Recombinant Human DLL4 (delta-like …); assay: ELISA, plate-coated DLL4, Fab 12.5 nM
[15] = biological target: T5, Recombinant Human DLL4 (delta-like …); assay: ELISA, plate-coated DLL4, Fab 100 nM
[16] = biological target: T5, Recombinant Human DLL4 (delta-like …); assay: ELISA, plate-coated DLL4, Fab 6.25 nM
[17] = biological target: T5, Recombinant Human DLL4 (delta-like …); assay: ELISA, plate-coated DLL4, Fab 50 nM

B1: Fab VH1-46_IGHD6-6*01_IGHJ1*01 S102A/S103P/S104F/H111F I51T/N52V & L6_IGKJ1*01 (Fab, V domains shown)
VH: QVQLVQSGAEVKKPGASVKVSCKASGYTFTSYYMHWVRQAPGQGLEWMGITVPSGGSTSYAQKFQGRVTMTRDTSTSTVYMELSSLRSEDTAVYYCAREEYAPFSAEYFQFWGQGTLVTVSS
VL: not shown
notes: Fab; also called APFF I51T/N52V
Kd [1]: 10 to 100 nM

B4: Fab VH1-46_IGHD6-6*01_IGHJ1*01 S102A/S103P/S104F/H111F (APFF) & L6_IGKJ1*01 W94S (Fab, V domains shown)
VH: B1 VH with T51I, V52N
VL: EIVLTQSPATLSLSPGERATLSCRASQSVSSYLAWYQQKPGQAPRLLIYDASNRATGIPARFSGSGSGTDFTLTISSLEPEDFAVYYCQQRSNSPPWTFGQGTKVEIKR
notes: Fab from E. coli; VH in Plasmid A (CH1, His6 and Flag tags), VL in Plasmid C (kappa CL); also called APFF & W94S
ECL signal (Recombinant Human DLL4): 109000

B5: Fab VH1-46_IGHD6-6*01_IGHJ1*01 S102A/S103P/S104F/H111F (H:APFF) & L6_IGKJ1*01 S28N/S30D/S31H N53A (Fab, V domains shown)
VH: B1 VH with T51I, V52N
VL: B4 VL with S28N, S30D, S31H, N53A, S94W
notes: Fab made in E. coli: heavy chain from Plasmid A (CH1, His6 and Flag tags), kappa light chain from Plasmid C (kappa CL); also called H:APFF & L:NDH N53A
ELISA (Avgerage signal-noise) [10]: 0.151 | ECL signal [11]: 14200

B6: Fab VH1-46_IGHD6-6*01_IGHJ1*01 S102A/S103P/S104F/H111F (APFF) & L6_IGKJ1*01 W94L (Fab, V domains shown)
VH: B1 VH with T51I, V52N
VL: B4 VL with S94L
notes: Fab from E. coli; VH in Plasmid A (CH1, His6 and Flag tags), VL in Plasmid C (kappa CL); also called APFF & W94L
ECL signal (Recombinant Human DLL4): 11600

B7: Fab VH1-46_IGHD6-6*01_IGHJ1*01 S102A/S103P/S104F/H111F (APFF) & L6_IGKJ1*01 S28N/S30D/S31H A55G (Fab, V domains shown)
VH: B1 VH with T51I, V52N
VL: B4 VL with S28N, S30D, S31H, A55G, S94W
notes: Fab made in E. coli: VH in plasmid A (CH1, His6 and Flag tags), VL in plasmid C (kappa CL); also called H:APFF & L:NDH A55G; APFF / NDH/A55G
ELISA signal at 25 nM Fab [12]: 0.316 | ELISA signal at 3.125 nM Fab [13]: 0.093 | ELISA signal at 12.5 nM Fab [14]: 0.198 | ELISA signal at 100 nM Fab [15]: 0.814 | ELISA signal at 6.25 nM Fab [16]: 0.125 | ELISA signal at 50 nM Fab [17]: 0.51

B9: Fab VH1-46_IGHD6-6*01_IGHJ1*01 S102A/S103P/S104F/H111F I51T/N52L/P53A/S54T/G56H & L6_IGKJ1*01 (Fab, V domains shown)
VH: B1 VH with V52L, P53A, S54T, G56H
VL: not shown
notes: Fab; also called APFF TLATH
Kd [1]: > 100 nM

B12: Fab VH1-46_IGHD6-6*01_IGHJ1*01 S102A/S103P/S104F/H111F (H:APFF) & L6_IGKJ1*01 S28N/S30D/S31H N53P (Fab, V domains shown)
VH: B1 VH with T51I, V52N
VL: B4 VL with S28N, S30D, S31H, N53P, S94W
notes: Fab made in E. coli: heavy chain from Plasmid A (CH1, His6 and Flag tags), kappa light chain from Plasmid C (kappa CL); also called H:APFF & L:NDH N53P
ELISA (Avgerage signal-noise) [10]: 0.12 | ECL signal [11]: 18100

B13: Fab VH1-46_IGHD6-6*01_IGHJ1*01 S102A/S103P/S104F/H111F I51N/N52L/S54T/G56H & L6_IGKJ1*01 (Fab, V domains shown)
VH: B1 VH with T51N, V52L, S54T, G56H
VL: not shown
notes: Fab; also called APFF NLTH
Kd [1]: 1 to 10 nM

Further lines, results first:

ELISA signal [2]: 1.11 | ELISA signal [3]: 0.078 | ELISA signal [4]: 1.11 | ELISA signal [5]: 0.875 | ELISA signal [6]: 0.592 | ELISA signal [7]: 1.27 | ELISA signal [8]: 0.227 | ELISA signal [9]: 0.875
B2: Fab VH1-46_IGHD6-6*01_IGHJ1*01 S102A/S103P/S104F/H111F/I51T/N52L/P53A/S54T/G56H (APFF TLATH) & L6_IGKJ1*01 (Fab, V domains shown)
VH: B1 VH with V52L, P53A, S54T, G56H
VL: not shown
notes: Tested as a Fab made in E. coli: VH in Plasmid A (CH1, His6 and Flag tags), kappa VL in Plasmid C (kappa CL)

Kd [1]: 1 to 10 nM
B3: Fab VH1-46_IGHD6-6*01_IGHJ1*01 S102A/S103P/S104F/H111F N52L/S54T/G56H & L6_IGKJ1*01 (Fab, V domains shown)
VH: B1 VH with T51I, V52L, S54T, G56H
VL: not shown
notes: Fab; also called H:APFF LTH & L:wt; APFF LTH

ELISA signal [2]: 1.63 | ELISA signal [3]: 0.143 | ELISA signal [4]: 1.63 | ELISA signal [5]: 1.36 | ELISA signal [6]: 1.17 | ELISA signal [7]: 1.75 | ELISA signal [8]: 0.419 | ELISA signal [9]: 1.36
B8: Fab VH1-46_IGHD6-6*01_IGHJ1*01 S102A/S103P/S104F/H111F/I51N/N52L/S54T/G56H (APFF NLTH) & L6_IGKJ1*01 (Fab, V domains shown)
VH: B1 VH with T51N, V52L, S54T, G56H
VL: not shown
notes: as for B2

Kd [1]: 1 to 10 nM
B10: Fab VH1-46_IGHD6-6*01_IGHJ1*01 S102A/S103P/S104F/H111F I51V/N52L/S54T/G56H & L6_IGKJ1*01 (Fab, V domains shown)
VH: B1 VH with T51V, V52L, S54T, G56H
VL: not shown
notes: Fab; also called APFF VLTH; APPF VLTH

ELISA signal [2]: 0.648 | ELISA signal [3]: 0.055 | ELISA signal [4]: 0.648 | ELISA signal [5]: 0.506 | ELISA signal [6]: 0.358 | ELISA signal [7]: 0.724 | ELISA signal [8]: 0.115 | ELISA signal [9]: 0.506
B11: Fab VH1-46_IGHD6-6*01_IGHJ1*01 S102A/S103P/S104F/H111F I51T/N52V (APFF I51T/N52V) & L6_IGKJ1*01 (Fab, V domains shown)
VH: B1 VH
VL: not shown
notes: as for B2
